Assay [1] concerns the target purified human placental alkaline phosphatase (hPLAP, SIGMA) (human) (UniProt P05187). Nature of the assay: ELISA, plate coated with purified hPLAP; mAb 64 ng/ml in PBS, diluted 1:32; anti-mouse-HRP, TMB.
For assay [2] the target is unchanged. Kind of assay: ELISA, plate coated with purified hPLAP; mAb 64 ng/ml in PBS, diluted 1:16; anti-mouse-HRP, TMB.
Assay [3] has the same target. Nature of the assay: ELISA, plate coated with purified hPLAP; row labelled '0' (not explained, presumably no sample, blank); anti-mouse-HRP, TMB.
Assay [4] shares this target. Nature of the assay: ELISA, plate coated with purified hPLAP; mAb 64 ng/ml in PBS, undiluted; anti-mouse-HRP, TMB.
Assay [5] shares this target. Kind of assay: ELISA, plate coated with purified hPLAP; mAb 64 ng/ml in PBS, diluted 1:4; anti-mouse-HRP, TMB.
The target is the same in assay [6]. Kind of assay: ELISA, plate coated with purified hPLAP; mAb 64 ng/ml spiked in negative serum, diluted 1:32; anti-mouse-HRP, TMB.
The target is the same in assay [7]. Kind of assay: ELISA, plate coated with purified hPLAP; mAb 64 ng/ml in PBS, diluted 1:64; anti-mouse-HRP, TMB.
For assay [8] the target is unchanged. Nature of the assay: ELISA, plate coated with purified hPLAP; mAb 64 ng/ml spiked in negative serum, diluted 1:4; anti-mouse-HRP, TMB.
The target is the same in assay [9]. Kind of assay: ELISA, plate coated with purified hPLAP; mAb 64 ng/ml spiked in negative serum, undiluted; anti-mouse-HRP, TMB.
Assay [10] shares this target. Kind of assay: ELISA, plate coated with purified hPLAP; mAb 64 ng/ml spiked in negative serum, diluted 1:16; anti-mouse-HRP, TMB.
The target is the same in assay [11]. Kind of assay: ELISA, plate coated with purified hPLAP; mAb 64 ng/ml spiked in negative serum, diluted 1:64; anti-mouse-HRP, TMB.
The target is the same in assay [12]. Nature of the assay: ELISA, plate coated with purified hPLAP; mAb 64 ng/ml spiked in negative serum, diluted 1:8; anti-mouse-HRP, TMB.
The target is the same in assay [13]. Kind of assay: ELISA, plate coated with purified hPLAP; mAb 64 ng/ml in PBS, diluted 1:2; anti-mouse-HRP, TMB.
The target is the same in assay [14]. Nature of the assay: ELISA, plate coated with purified hPLAP; mAb 64 ng/ml in PBS, diluted 1:8; anti-mouse-HRP, TMB.
Assay [15] shares this target. Kind of assay: ELISA, plate coated with purified hPLAP; mAb 64 ng/ml spiked in negative serum, diluted 1:2; anti-mouse-HRP, TMB.

Where “and” joins values, the source holds several entries; their conditions need not be identical. Equal entries are not always repeated.

In patent EP1270739A1 one finds absorbance data, which are given here for two substances.

UniProt P05187, sequence (P05187 23-506 limits assumed): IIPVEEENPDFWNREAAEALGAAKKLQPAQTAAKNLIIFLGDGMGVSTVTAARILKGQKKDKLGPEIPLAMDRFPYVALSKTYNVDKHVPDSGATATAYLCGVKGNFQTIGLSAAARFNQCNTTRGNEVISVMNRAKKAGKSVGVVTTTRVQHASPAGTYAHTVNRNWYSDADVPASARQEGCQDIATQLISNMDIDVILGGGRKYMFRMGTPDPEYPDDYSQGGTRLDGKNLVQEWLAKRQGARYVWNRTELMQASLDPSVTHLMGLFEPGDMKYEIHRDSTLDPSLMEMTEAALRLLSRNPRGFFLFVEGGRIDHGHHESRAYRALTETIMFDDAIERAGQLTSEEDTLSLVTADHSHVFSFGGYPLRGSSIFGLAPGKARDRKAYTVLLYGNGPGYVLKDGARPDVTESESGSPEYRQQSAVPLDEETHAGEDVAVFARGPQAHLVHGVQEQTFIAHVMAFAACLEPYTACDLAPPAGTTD

Regarding “mouse monoclonal antibody to PLAP (clone 8B6, Sigma Immunochemicals)”, the absorbance at 450 nm is 0.091 absorbance in assay [1]; 0.169 absorbance in [2]; 0.007 absorbance and 0.009 absorbance in [3]; 0.486 absorbance in [4]; 0.424 absorbance in assay [5]; 0.071 absorbance in assay [6]. The absorbance at 450 nm in [7] was found to be 0.047 absorbance; in assay [8], 0.341 absorbance; in [9], 0.546 absorbance; in assay [10], 0.123 absorbance; in assay [11], 0.042 absorbance; in assay [12], 0.209 absorbance. Also, the absorbance at 450 nm was found to be 0.487 absorbance in assay [13], 0.282 absorbance in assay [14] and 0.439 absorbance in assay [15].

The substance “serum of mice injected with saline (negative control serum)” displayed an absorbance at 450 nm in assay [3] of 0.005 absorbance.
